Results from patent publication US20200123233A1 (published 2020).

Key:
[1] = target: T1, FTM-NN protein (membrane anchorless form of the Long fusion protein of hRSV, 70 kDa) (human respiratory syncytial virus, …, UniProt P12568 26-524); assay: competition ELISA, periplasmic extract diluted 1:100, competitor 101F Fab
[2] = target: T1, FTM-NN protein (membrane anchorless …); assay: competition ELISA, periplasmic extract diluted 1:300, competitor 101F Fab
[3] = target: T1, FTM-NN protein (membrane anchorless …); assay: ELISA, periplasmic extract on immobilised F protein; signal as fold over blank
[4] = target: T1, FTM-NN protein (membrane anchorless …); assay: competition ELISA, periplasmic extract diluted 1:1000, competitor 101F Fab
[5] = target: T2, hRSV FTM- protein (membrane anchorless form of the fusion protein, 70 kDa) (human respiratory syncytial virus, UniProt P12568 26-524); assay: SPR (Biacore T100), FTM- amine-coupled on CM5 chip, 1:1 Langmuir fit
T2 construct: extracellular domain

[6] = target: T3, FTM-NN (membrane anchorless form of the Long fusion protein, 70 kDa) (human respiratory syncytial virus, …, UniProt P12568 26-524); assay: SPR (Biacore), Ftm-NN protein immobilized on chip, Nanobody as analyte
T3 construct: domain: membrane anchorless form of the fusion protein

Binder	% Inhibition 101F Fab (1:100 PE) [1]	% Inhibition 101F Fab (1:300 PE) [2]	Binding RSV-A, Fold blanc [3]	% Inhibition 101F Fab (1:1000 PE) [4]	Kd [5]	koff [5]	kon [5]	other results
PMP8B10 (VHH) VHH: EVQLVESGGGLVQAGASLRLSCAASGLAFSRYAMGWFRQAPGKERESVAAISSSGDNIYYADSVKGQFTMSRDNAKSSVYLQMINLKPEDTAVYYCAATSPLFVASDYFEASRYGYWGQGTQVTVSS	56%	31%	3.5 fold over blank	6%	–	–	–	–
PMP8A1 (VHH) VHH: EVQLVESGGGLVQPGGSLRVSCAASGFTFNDYIMGWFRQAPGKERMFIAAISGTGTIKYYGDLVRGRFTISRDNAKNTVYLRIDSLNPEDTAVYYCAARQDYGLGYRESHEYDYWGQGTQVTVSS	–	55%	3.7 fold over blank	20%	–	–	–	–
PMP13B4 (VHH) VHH: EVQLVESGGGLVQAGGSLRLSCAASGFTFDDYAIGWFRQAPGKEREAVSCISSSDGSTYYADSVKGRFTISSDNAKNMVYLQMNSLKPEDTAVYYCAADLLRTAVGCLDYRGTYYPRTTMDYRGKGTLVTVSS	82%	47%	2.7 fold over blank	20%	–	–	–	–
PMP13E12 (VHH) VHH: EVQLVESGGGLVQAGGSLRLSCAASGRTFSRYIMGWFRQAPGKEREFVGAISRSGDITSFADFVKGRFTMSRDNAKNTLYLQMNSLEPEDTAVYSCAANSDTYYIYSDIVVPERYDYWGQGTQVTVSS	74%	28%	3.7 fold over blank	8%	–	–	–	–
PMP13C1 (VHH) VHH: EVQLVESGGGLVQPGGSLRLSCEASGFTWDYYVIGWFRQAPGKEREGLSCISSDGSTTYADSVKGRFTISRDNAKNTVYLQMNSLEPEDTAVYYCATDPALGCYSGSYYPRYDYWGQGTQVTVSS	57%	37%	3 fold over blank	9%	–	–	–	–
LG192H1 (VHH) VHH: EVQLVESGGGLVQAGGSLRLSCAASGIIFSTNHMGWYRRAPGKQRELVGTINRGDSPYYADSVKGRFTISRDNAKNMVYLQMNSLKPEDTAVYYCNAGYIYWGQGTQVTVSS	–	–	–	–	3.72 nM	0.00611 s⁻¹	1.65e+06 M⁻¹ s⁻¹	–
LG192C10 (VHH) VHH: EVQLVESGGGLVQAGGSLRLSCAASEGYFRNYMVGWFRQAPGGERMFVAAISDTAYYADSVKGRFTISRDNAKNTVYLPMNSLKPEDTAVYYCAAAPKSWGTWPLVADTRSYHFWGQGTQVTVSS	–	–	–	–	3.49 nM	0.000613 s⁻¹	175000 M⁻¹ s⁻¹	–
PMP1A2 (VHH) VHH: EVQLVESGGGLVQAGGSLRLSCAASERTFSYYAMGWFRQAPGKEREFVATISRSGEWIYYKDAMKGRFTISRDNANNAVYLQMNSLQPEDTAIYYCAADSLGGFRSASDYYNTNTYAYWGQGTQVTVSS	82%	27%	4 fold over blank	5%	–	–	–	–
LG192B1 (VHH) VHH: EVQLVESGGGLVQPGGSLRLSCAASGLTFRNYAIGWFRQAPGKEREGVSCINSGGSITDYLDSVKGRFAISRDNAKSTVYLQMNSLKPEDTAVYYCATDLTSSCPIYSGTDYWGKGTLVTVSS	–	–	–	–	55.5 nM	0.0127 s⁻¹	229000 M⁻¹ s⁻¹	–
LG192A8 (VHH) VHH: EVQLVESGGGLVQAGGSLRLSCAASERTVIAYTMGWFRRAPGKERDFVAAMNWNGGNTIYADSAKGRFTISRDNAKNTVYLQMNSLKAEDTAVYYCAARPRFWGSYEYDYWGQGTQVTVSS	–	–	–	–	2.91 nM	0.000937 s⁻¹	322000 M⁻¹ s⁻¹	–
LG192C4 (VHH) VHH: EVQLVESGGGLVQAGGSLRLSCEASGRTFSSYAMVGWFRQAPGKEREFVAAVTRWSGARTVYADSVKGRFTISRDNAENTVYLQMNSLKPEDTAVYTCAADSTNRNSGAVYYSWAYDYWGQGTQVTVSS	–	–	–	–	7.47 nM	0.00846 s⁻¹	1.13e+06 M⁻¹ s⁻¹	–
PMP13D1 (VHH) VHH: EVQLVESGGGLVQPGGSLRLSCATSGFTEDYYVIGWFRQAPGKEREGVSCMSSSGDSTTYADSVKGRFTISRDNAKNMVYLQMTSLKPEDTAVYYCAADFALGCYSGSYYPRYDYWGQGTQVTVSS	78%	52%	3.1 fold over blank	16%	–	–	–	–
NC41v06 (VHH) VHH: EVQLLESGGGLVQPGGSLRLSCAASGGSLSNYVLGWFRQAPGKGREFVAAINWRDDITIGPPNVEGRFTISRDNAKNTLYLQMNSLRPEDTAVYYCGAGTPLNPGAYIYDWSYDYWGQGTLVTVSS	–	–	–	–	–	–	–	Kd [6]: 2.5 nM; koff [6]: 0.0048 s⁻¹; kon [6]: 2e+06 M⁻¹ s⁻¹
NC41 (VHH) VHH: EVQLVESGGGLVQAGGSLSISCAASGGSLSNYVLGWFRQAPGKEREFVAAINWRGDITIGPPNVEGRFTISRDNAKNTGYLQMNSLAPDDTAVYYCGAGTPLNPGAYIYDWSYDYWGRGTQVTVSS	–	–	–	–	–	–	–	Kd [6]: 4 nM; koff [6]: 0.0067 s⁻¹; kon [6]: 1.7e+06 M⁻¹ s⁻¹
LG191B9 (VHH) VHH: EVQLVESGGGLVQAGGSLRLSCAASGRTFSSSFMAWFRQVLGSDREFVGGISPGGRFTYYADSRKGRFTISGDNANNTVYLQMHSVKPEDTATYYCAADTQFSGYVPKETNEYDYWGQGTQVTVSS	–	–	–	–	25.4 nM	0.00492 s⁻¹	194000 M⁻¹ s⁻¹	–
PMP13A1 (VHH) VHH: EVQLVESGGGLVQPGGSLRLSCAASGLTLDYYALGWFRQAPGKEREGVSCISSADHSTTYADSVKGRFTISWDNAKNTVYLQMNSLKPEDTAVYYCAADPALGCYSGNYYPRYDYWGQGTQVTVSS	74%	46%	2.9 fold over blank	13%	–	–	–	–
PMP19E2 (VHH) VHH: EVQLVESGGGLVQPGGSLRLSCAASGLTLDYYALGWFRQAPGKEREGVSCISSSDHTTTYTDSVKGRFTISWDNAKNTLYLQMNSLKPEDTAVYYCAADPALGCYSGSYYPRYDFWGQGTQVTVSS	74%	27%	3.5 fold over blank	5%	–	–	–	–
LG192F2 (VHH) VHH: EVQLVESGGGLVQAGGSLRLSCEASGRTFSPIAMGWFRQAPGKEREFVAVVTRWSGARTVYADSVKGRFTISRDNAENTVYLQMNSLKPEDTAVYTCAADSTNRNSGAIYYTWAYDYWGQGTQVTVSS	–	–	–	–	7.14 nM	0.00577 s⁻¹	807000 M⁻¹ s⁻¹	–
LG192C6 (VHH) VHH: EVQLVESGGGLVQAGGSLRLSCEASGRTERYQAMGWFRQAPGKEREFVAVVTRWSGARTVYADSVKGRFTISRDNAENTVYLQMNSLKPEDTAVYTCAADSTNRNRGAIYYTWAYDYWGQGTQVTVSS	–	–	–	–	7 nM	0.00808 s⁻¹	1.15e+06 M⁻¹ s⁻¹	–
LG192H2 (VHH) VHH: EVQLVESGGGLVQAGGSLRLSCEASGRTFSNYAMGWFRQAPGKEREFVAVVTRWSGGRTVYADSVKGRFTISRDNAENTVYLQMNSLKPEDTAVYTCAADSTNRNSGAWYYTWAYDHWGQGTQVTVSS	–	–	–	–	15.4 nM	0.0128 s⁻¹	829000 M⁻¹ s⁻¹	–
LG191D3 (VHH) VHH: EVQLVESGGGLVQAGGSLRLSCEASGRTYSRYGMGWFRQAPGKEREFVAAVSRLSGPRTVYADSVKGRFTISRDNAENTVYLQMNSLKPEDTAVYTCAAELTNRNSGAYYYAWAYDYWGQGTQVTVSS	–	–	–	–	2.05 nM	0.00324 s⁻¹	1.59e+06 M⁻¹ s⁻¹	–
LG191E4 (VHH) VHH: EVQLVESGGGLVQAGGSLRLSCAASGPTFSADTMGWFRQAPGKEREFVATIPWSGGIAYYSDSVKGRFTMSRDNAKNTVDLQMNSLKPEDTALYYCAGSSRIYIYSDSLSERSYDYWGQGTQVTVSS	–	–	–	–	0.7 nM	0.000208 s⁻¹	298000 M⁻¹ s⁻¹	–
PMP1B2 (VHH) VHH: EVQLVESGGGLVQAGGSLRLSCAASGPTFSADTMGWFRQAPGKEREFVATIPWSGGIAYYSDSVKGRFTMSRDNAKNTVDLQMNSLKPEDTALYYCAGSSRIYIYSDSLSERSYDYWGQGTQVTVSS	82%	58%	3.8 fold over blank	25%	–	–	–	–
PMP23E5 (VHH) VHH: EVQLMESGGGLVQAGGSLRLSCAASGGTFSSYAMGWFRQAPGEERDFVAAIGWSGNSPYYAQFVKGRFTISRDNAKNTVHLQMNSLKPEDTAVYYCAAAHNTMGSDYEGYDYWGQGTQVTVSS	37%	16%	3.4 fold over blank	–	–	–	–	–
